Source: patent publication US20240066131A1 (Protagonist Therapeutics, Inc., priority 2020, published 2024)
Starred links: 1 amine or outer side, 2 acyl side, 3 side chain; linkers in the order of their positions; H or OH if unused. Positions of bridges follow the written chain, without caps; N, C: chain ends. Non-standard residues stand in square brackets, D forms with d. Groups on a side chain read outwards from the residue. *: point of attachment. Tet2 = (S)-2-amino-4-(1H-tetrazol-5-yl)butanoic acid, O=C([C@H](CCc1nn[nH]n1)N[*:1])[*:2]; Ala(1H-tetrazol-5-yl) = N[C@@H](Cc1nnn[nH]1)C(=O)O; Dip = N[C@H](C(=O)O)C(c1ccccc1)c1ccccc1; His(τ-Me) = Cn1cnc(C[C@H](N)C(=O)O)c1; Palmitoyl = CCCCCCCCCCCCCCCC(=O)*; β3hF = N[C@H](CC(=O)O)Cc1ccccc1; NMeK = CN[C@@H](CCCCN)C(=O)O; Isovaleryl = CC(C)CC(=O)*; Ahx = NCCCCCC(=O)O

T1: human ferroportin (SLC40A1) fused in frame with GFP, stably expressed in HEK293 cells (human, UniProt Q9NP59 1-571)
T1 sequence (looked up): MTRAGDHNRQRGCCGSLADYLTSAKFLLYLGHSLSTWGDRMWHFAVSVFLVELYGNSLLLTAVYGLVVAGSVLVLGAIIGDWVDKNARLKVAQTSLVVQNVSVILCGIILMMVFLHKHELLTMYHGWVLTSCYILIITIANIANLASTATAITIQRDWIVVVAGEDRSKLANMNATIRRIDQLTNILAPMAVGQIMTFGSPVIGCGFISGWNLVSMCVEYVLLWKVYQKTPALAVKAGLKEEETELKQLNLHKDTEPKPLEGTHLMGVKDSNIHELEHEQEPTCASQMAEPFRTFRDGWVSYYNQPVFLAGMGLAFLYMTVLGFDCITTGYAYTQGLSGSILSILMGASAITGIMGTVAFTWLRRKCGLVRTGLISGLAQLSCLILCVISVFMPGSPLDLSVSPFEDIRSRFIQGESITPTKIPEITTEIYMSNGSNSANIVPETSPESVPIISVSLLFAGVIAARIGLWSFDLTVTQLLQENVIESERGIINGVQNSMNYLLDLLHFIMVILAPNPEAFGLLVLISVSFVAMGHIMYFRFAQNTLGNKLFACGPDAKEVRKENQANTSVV


Molecular target: T1, human ferroportin (SLC40A1) fused in …
Assay: cell-based or functional assay

Row | Binder | FPN EC50 [nM]
1 | Isovaleryl-ETH[Dip]PAI[β3hF][dK]A-NH2 (SMILES CC[C@H](C)[C@H](NC(=O)[C@H](C)NC(=O)[C@@H]1CCCN1C(=O)[C@@H](NC(=O)[C@H](Cc1c[nH]cn1)NC(=O)[C@@H](NC(=O)[C@H](CCC(=O)O)NC(=O)CC(C)C)[C@@H](C)O)C(c1ccccc1)c1ccccc1)C(=O)N[C@H](CC(=O)N[C@H](CCCCN)C(=O)N[C@@H](C)C(N)=O)Cc1ccccc1) [Isovaleric Acid-E-T-H-[Dpa]-P-A-I-[bhPhe]-[(D)Lys]-A-NH2] | 915
2 | Isovaleryl-[Ala(1H-tetrazol-5-yl)]T[His(τ-Me)][Dip]PAIK(Ac)[β3hF][dK]A-NH2 (SMILES CC[C@H](C)[C@H](NC(=O)[C@H](C)NC(=O)[C@@H]1CCCN1C(=O)[C@@H](NC(=O)[C@H](Cc1cn(C)cn1)NC(=O)[C@@H](NC(=O)[C@H](Cc1nnn[nH]1)NC(=O)CC(C)C)[C@@H](C)O)C(c1ccccc1)c1ccccc1)C(=O)N[C@@H](CCCCNC(C)=O)C(=O)N[C@H](CC(=O)N[C@H](CCCCN)C(=O)N[C@@H](C)C(N)=O)Cc1ccccc1) [Isovaleric Acid-[Tet1]-T-[(1-Me)His]-[Dpa]-P-A-I-[Lys(Ac)]-[bhPhe]-[(D)Lys]-A-NH2] | > 3000
3 | Isovaleryl-[Ala(1H-tetrazol-5-yl)]T[His(τ-Me)][Dip]PAI[β3hF][dK]A-NH2 (SMILES CC[C@H](C)[C@H](NC(=O)[C@H](C)NC(=O)[C@@H]1CCCN1C(=O)[C@@H](NC(=O)[C@H](Cc1cn(C)cn1)NC(=O)[C@@H](NC(=O)[C@H](Cc1nnn[nH]1)NC(=O)CC(C)C)[C@@H](C)O)C(c1ccccc1)c1ccccc1)C(=O)N[C@H](CC(=O)N[C@H](CCCCN)C(=O)N[C@@H](C)C(N)=O)Cc1ccccc1) [Isovaleric Acid-[Tet1]-T-[(1-Me)His]-[Dpa]-P-A-I-[bhPhe]-[(D)Lys]-A-NH2] | 241
4 | Isovaleryl-[Tet2]T[His(τ-Me)][Dip]PAIK(Ac)[β3hF][dK]A-NH2 [Isovaleric Acid-[Tet2]-T-[(1-Me)His]-[Dpa]-P-A-I-[Lys(Ac)]-[bhPhe]-[(D)Lys]-A-NH2] | > 3000
5 | Isovaleryl-[Tet2]TH[Dip]PAIK(Ac)[β3hF][dK]A-NH2 (SMILES CC[C@H](C)[C@H](NC(=O)[C@H](C)NC(=O)[C@@H]1CCCN1C(=O)[C@@H](NC(=O)[C@H](Cc1c[nH]cn1)NC(=O)[C@@H](NC(=O)[C@H](CCc1nn[nH]n1)NC(=O)CC(C)C)[C@@H](C)O)C(c1ccccc1)c1ccccc1)C(=O)N[C@@H](CCCCNC(C)=O)C(=O)N[C@H](CC(=O)N[C@H](CCCCN)C(=O)N[C@@H](C)C(N)=O)Cc1ccccc1) [Isovaleric Acid-[Tet2]-T-H-[Dpa]-P-A-I-[Lys(Ac)]-[bhPhe]-[(D)Lys]-A-NH2] | 117
6 | Isovaleryl-KTH[Dip]PAIK([Ahx-Palmitoyl])[β3hF]E-NH2 (lactam 1-10; SMILES CCCCCCCCCCCCCCCC(=O)NCCCCCC(=O)NCCCC[C@@H]1NC(=O)[C@H]([C@@H](C)CC)NC(=O)[C@H](C)NC(=O)[C@@H]2CCCN2C(=O)[C@H](C(c2ccccc2)c2ccccc2)NC(=O)[C@H](Cc2c[nH]cn2)NC(=O)[C@H]([C@@H](C)O)NC(=O)[C@@H](NC(=O)CC(C)C)CCCCNC(=O)CC[C@@H](C(N)=O)NC(=O)C[C@H](Cc2ccccc2)NC1=O) [Isovaleric Acid-K-T-H-[Dpa]-P-A-I-[Lys(Ahx_Palm)]-[bhPhe]-E-NH2; (K and E cyclized)] | 184
7 | Isovaleryl-ETH[Dip]PKIK([Ahx-Palmitoyl])[β3hF][dK]-NH2 (lactam 1-6 (inferred)) [Isovaleric Acid-E-T-H-[Dpa]-P-K-I-[Lys(Ahx_Palm)]-[bhPhe]-[(D)Lys]-NH2; (E and K cyclized)] | 122
8 | Isovaleryl-LT[His(τ-Me)][Dip]PAIK([Ahx-Palmitoyl])[β3hF]-NH2 (SMILES CCCCCCCCCCCCCCCC(=O)NCCCCCC(=O)NCCCC[C@H](NC(=O)[C@@H](NC(=O)[C@H](C)NC(=O)[C@@H]1CCCN1C(=O)[C@@H](NC(=O)[C@H](Cc1cn(C)cn1)NC(=O)[C@@H](NC(=O)[C@H](CC(C)C)NC(=O)CC(C)C)[C@@H](C)O)C(c1ccccc1)c1ccccc1)[C@@H](C)CC)C(=O)N[C@H](CC(N)=O)Cc1ccccc1) [Isovaleric Acid-L-T-[(1Me)His]-[Dpa]-P-A-I-[Lys(Ahx_Palm)]-[bhPhe]-NH2] | > 3000

Next, values leading:

Row | FPN EC50 [nM] | Binder
9 | 103 | Isovaleryl-LTH[Dip]PAI[NMeK][β3hF]K([Ahx-Palmitoyl])-NH2 (SMILES CCCCCCCCCCCCCCCC(=O)NCCCCCC(=O)NCCCC[C@H](NC(=O)C[C@H](Cc1ccccc1)NC(=O)[C@H](CCCCN)N(C)C(=O)[C@@H](NC(=O)[C@H](C)NC(=O)[C@@H]1CCCN1C(=O)[C@@H](NC(=O)[C@H](Cc1c[nH]cn1)NC(=O)[C@@H](NC(=O)[C@H](CC(C)C)NC(=O)CC(C)C)[C@@H](C)O)C(c1ccccc1)c1ccccc1)[C@@H](C)CC)C(N)=O) [Isovaleric Acid-L-T-H-[Dpa]-P-A-I-[(N-Me)Lys]-[bhPhe]-[Lys(Ahx_Palm)]-NH2]
10 | 63.1 | Isovaleryl-[Ala(1H-tetrazol-5-yl)]T[His(τ-Me)][Dip]PAIK([Ahx-Palmitoyl])[β3hF]-NH2 (SMILES CCCCCCCCCCCCCCCC(=O)NCCCCCC(=O)NCCCC[C@H](NC(=O)[C@@H](NC(=O)[C@H](C)NC(=O)[C@@H]1CCCN1C(=O)[C@@H](NC(=O)[C@H](Cc1cn(C)cn1)NC(=O)[C@@H](NC(=O)[C@H](Cc1nnn[nH]1)NC(=O)CC(C)C)[C@@H](C)O)C(c1ccccc1)c1ccccc1)[C@@H](C)CC)C(=O)N[C@H](CC(N)=O)Cc1ccccc1) [Isovaleric Acid-[Tet1]-T-[(1Me)His]-[Dpa]-P-A-I-[Lys(Ahx_Palm)]-[bhPhe]-NH2]
11 | 61.2 | Isovaleryl-ATH[Dip]PEI[dK][β3hF]K([Ahx-Palmitoyl])R-NH2 (lactam 6-8; SMILES CCCCCCCCCCCCCCCC(=O)NCCCCCC(=O)NCCCC[C@H](NC(=O)C[C@H](Cc1ccccc1)NC(=O)[C@H]1CCCCNC(=O)CC[C@H](NC(=O)[C@@H]2CCCN2C(=O)[C@@H](NC(=O)[C@H](Cc2c[nH]cn2)NC(=O)[C@@H](NC(=O)[C@H](C)NC(=O)CC(C)C)[C@@H](C)O)C(c2ccccc2)c2ccccc2)C(=O)N[C@@H]([C@@H](C)CC)C(=O)N1)C(=O)N[C@@H](CCCNC(=N)N)C(N)=O) [Isovaleric Acid-A-T-H-[Dpa]-P-E-I-[(D)Lys]-[bhPhe]-[Lys(Ahx_Palm)]-R-NH2; (E and (D)Lys cyclized)]
12 | 95.9 | Isovaleryl-LT[His(τ-Me)][Dip]PAI[NMeK][β3hF]K([Ahx-Palmitoyl])-NH2 [Isovaleric Acid-L-T-[(1Me)His]-[Dpa]-P-A-I-[(N-Me)Lys)]-[bhPhe]-[Lys(Ahx_Palm)]-NH2]
13 | > 3000 | Isovaleryl-[Tet2]T[His(τ-Me)][Dip]PAIK(Ac)[β3hF][dK]-NH2 (SMILES CC[C@H](C)[C@H](NC(=O)[C@H](C)NC(=O)[C@@H]1CCCN1C(=O)[C@@H](NC(=O)[C@H](Cc1cn(C)cn1)NC(=O)[C@@H](NC(=O)[C@H](CCc1nn[nH]n1)NC(=O)CC(C)C)[C@@H](C)O)C(c1ccccc1)c1ccccc1)C(=O)N[C@@H](CCCCNC(C)=O)C(=O)N[C@H](CC(=O)N[C@H](CCCCN)C(N)=O)Cc1ccccc1) [Isovaleric Acid-[Tet2]-T-[(1-Me)His]-[Dpa]-P-A-I-[Lys(Ac)]-[bhPhe]-[(D)Lys]-NH2]
14 | 378 | Isovaleryl-[Ala(1H-tetrazol-5-yl)]T[His(τ-Me)][Dip]PAI[β3hF][dK]-NH2 (SMILES CC[C@H](C)[C@H](NC(=O)[C@H](C)NC(=O)[C@@H]1CCCN1C(=O)[C@@H](NC(=O)[C@H](Cc1cn(C)cn1)NC(=O)[C@@H](NC(=O)[C@H](Cc1nnn[nH]1)NC(=O)CC(C)C)[C@@H](C)O)C(c1ccccc1)c1ccccc1)C(=O)N[C@H](CC(=O)N[C@H](CCCCN)C(N)=O)Cc1ccccc1) [Isovaleric Acid-[Tet1]-T-[(1-Me)His]-[Dpa]-P-A-I-[bhPhe]-[(D)Lys]-NH2]
